Results on 30 sequences are retold here after the supplement of paper PMC9170038.

This data set has as its system MS2 coat protein. Briefly: apparent KD of MS2 coat protein; designed switch direction (-1 OFF switch, 1 ON switch): -1; higher = weaker reporter binding. In a few lines: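 Three titration conditions were used: no input, 200 uM small-molecule ligand, and an oligonucleotide input. In each, SNAP-549-labelled MS2 coat protein was raised from 0.7 or 1.5 nM, doubling, to 3 µM over designed RNA switches transcribed on Illumina chips by stalled E. coli RNA polymerase. Curve fits of normalised cluster fluorescence gave values whose per-design median over clusters is the apparent KD.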

Where [1] appears, read: Eterna round: R95, input ligand: microRNA oligo, concentration not stated.
[2] abbreviates: Eterna round: R95, input ligand: FMN 200 uM.
Where [3] appears, read: Eterna round: R95, input ligand: none.
Where [4] appears, read: input ligand: microRNA oligo, concentration not stated.

Consider “GAUUGACAUGAGGAUCACCCAUGUGAGGAUAUCGGCCGGACCUUGUUAGCUUCCACCGCGAGAAGGCACAUAGG [Exclusion 1 V31] (puzzle: Exclusion 1)”, for which the “apparent KD of MS2 coat protein” value under setting [1] came to 25.3 nM.
As for “GAUUGACAUGAGGAUCACCCAUGUGAGGAUAUCGGCUGGACCGUGUUGGCGUGCCUCUCGAGAAGGCGCAUAGG [Exclusion 1 V54] (puzzle: Exclusion 1)”, the “apparent KD of MS2 coat protein” value by setting is: under setting [2], 64.8 nM; under setting [1], 39.9 nM; under setting [3], 51.3 nM.
For “GAUUGACAUGAGGAUCACCCAUGUGAGGAUAUCGGCUGGACCGUGUUGGCUUGCUUCUCGAGAAGGCGCAUAGG [Exclusion 1 V51] (puzzle: Exclusion 1)”, in that order: 32.7 nM, 33.9 nM and 36 nM.
As to “GAUUGACAUGAGGAUCACCCAUGUGAGGAUAUCGGCUGGACCGUGUUGGCUUGCUUUUCGAGAAGGCGCAUAGG [Exclusion 1 V49] (puzzle: Exclusion 1)”, the “apparent KD of MS2 coat protein” value amounted to 55 nM under setting [2], 36.8 nM under setting [1] and 35 nM under setting [3].
Regarding “GAUUGAGAGCAGGAUAUCUUAGAAAUGUAUUAAAGAGAAGGGCUCACAUGAGGAUCACCCAUGUGGUCCUAGAU [JL Dibiri mod 16] (Eterna round: R96, puzzle: Exclusion 6)”, the “apparent KD of MS2 coat protein” value runs as follows: (input ligand: FMN 200 uM) 306 nM; under setting [4], 22.8 nM; (input ligand: none) 26.3 nM.
On to “GAUUGAGAGCAGGAUAUCUUAGAAAUGUAUUAAAGAGAAGGGCUCACAUGAGGAUCACCCAUGUGGUCCUAGAU [JL Dibiri mod 16] (puzzle: Exclusion 6)”, for which, under setting [1], the “apparent KD of MS2 coat protein” value was determined as 20.8 nM.
For “GCAAGACGAGGAUAUUGAGAAGGGAACAUGAGGAUCACCCAUGUGGUGGUUUCGACCGGUCGAGAAGGCGUAGAAC [EX5 B.6] (Eterna round: R97, puzzle: Exclusion 5)”, the “apparent KD of MS2 coat protein” value came out at 1150 nM (input ligand: FMN 200 uM) and 957 nM (input ligand: none).
Turning to “GCAAGCUUUUUCGUGGGUGACAUGAGGAUCACCCAUGUUUGCCACGUCUUGUGGGCCCGGGCCCGCGGCCCGGGCCC [-44.9, -65.2, A 12%] (Eterna round: R97, puzzle: Sensor, turn-off variant 1)”, the “apparent KD of MS2 coat protein” value (input ligand: FMN 200 uM) was 54.6 nM and the “apparent KD of MS2 coat protein” value (input ligand: none) worked out at 67.6 nM.
On to “GCACAGACAGGAUAUACAUGAGGAUCACCCAUGUGACCCUUAUAGUACUCGCGUACAAGUAGAAGGGUCUGUGC [Omei Ex3 Model Bachelor's Dilema v32] (Eterna round: R97, puzzle: Exclusion 3)”, for which the “apparent KD of MS2 coat protein” value was determined as 320 nM (input ligand: FMN 200 uM) and 832 nM (input ligand: none).
On to “GCACGGAGUGUAGGAUAUCUGUGCGAUUAGCUCAGAGAAGGACACAUGAGGAUCACCCAUGUGUACCUCAACACUAAUCCGUGC [Eli exng1 - 076] (Eterna round: R96, puzzle: Exclusion NG 1)”, for which the “apparent KD of MS2 coat protein” value reads like this: (input ligand: FMN 200 uM) 10.5 nM; under setting [4], 8.88 nM; (input ligand: none) 10.1 nM.
Consider “GCACGGAUGGUAGGAUAUCUGUGCGAUUAGCUCAGAGAAGGACCACAUGAGGAUCACCCAUGUACCUCAAUUAGCCUUCCGUGC [Eli exng1 - 019] (Eterna round: R96, puzzle: Exclusion NG 1)”, for which the “apparent KD of MS2 coat protein” value is, setting by setting: (input ligand: FMN 200 uM) 14.8 nM; under setting [4], 11.3 nM; (input ligand: none) 15.2 nM.
In the case of “GCAGAAAGUGUAGGAUAUAGAAAUUAGCGGAAACGCAAUACAUGAGGAUCACCCAUGUUUCCUCACUAGAAGGGCAAAAGCUGC [EXNG2 V2 f] (Eterna round: R96, puzzle: Exclusion NG 2)”, the “apparent KD of MS2 coat protein” value under setting [4] is 12.8 nM.
For the sequence “GCAGAAAGUGUAGGAUAUAGAUAUUAGCGGAAACGCAAUACAUGAGGAUCACCCAUGUUUCCUCACUAGAAGGGCAAAAGCUGC [EXNG2 V2 d] (Eterna round: R96, puzzle: Exclusion NG 2)”, the “apparent KD of MS2 coat protein” value is 18.7 nM (input ligand: FMN 200 uM), 12.5 nM under setting [4] and 17.2 nM (input ligand: none).
As for “GCAGACGUAGUGAGGAUAUGCUCUACCUCGGUAGAGCAGAAGGCACAUGAGGAUCACCCAUGUGAUUCUUCUGC [Omei Ex4B B10] (Eterna round: R97, puzzle: Brourd's mod of Exclusion 4)”, the “apparent KD of MS2 coat protein” value was found to be 324 nM (input ligand: FMN 200 uM) and 47.2 nM (input ligand: none).
Consider “GCAGACGUAGUGAGGAUAUGCUCUACCUCGGUAGAGCAGAAGGCACAUGAGGAUCACCCAUGUGGUUCCUCAUC [Omei Ex4B B19] (Eterna round: R97, puzzle: Brourd's mod of Exclusion 4)”, for which the “apparent KD of MS2 coat protein” value by setting is: (input ligand: FMN 200 uM) 54 nM; (input ligand: none) 15.6 nM.
Take “GCAGCAAAAUUCCAUAAAACCACAUGAGGAUCACCCAUGUCUCAGGAUAUGGUCUGGAUUACAGGCCAGAAGGGAGAAAGCUGC [Eli exng3 - 058] (Eterna round: R96, puzzle: Exclusion NG 3)”: the “apparent KD of MS2 coat protein” value was 14.6 nM (input ligand: FMN 200 uM), 12.6 nM under setting [4] and 13.9 nM (input ligand: none).
For “GCAGCAUAGUGUUAUUACACAAUACAUGAGGAUCACCCAUGUGAGGAUAUGGACUGGAUUACAGUCCAGAAGGCACAAAGCUGC [Zipper Style 3] (Eterna round: R96, puzzle: Exclusion NG 3)”, in that order: 21.7 nM, 12.5 nM and 19.8 nM.
Turning to “GCAGCAUUAGGAUAUUGCUAAUGUAACAUGAGGAUCACCCAUGUGUGUCGUUAUUACUUAUAAGAAGGAAUGUGCC [Eternabot (L2) Solution 88] (Eterna round: R97, puzzle: Exclusion 5)”, the “apparent KD of MS2 coat protein” value is 24.9 nM (input ligand: FMN 200 uM) and 36.4 nM (input ligand: none).
As to “GCAGCGUAGUCCAAAUAGGACAUACAUGAGGAUCACCCAUGUCAGGAUAUGGUCUGGAUUACAGGCCAGAAGGGACAAAGCUGC [Eli exng3 - 003] (Eterna round: R96, puzzle: Exclusion NG 3)”, the “apparent KD of MS2 coat protein” value was determined as 19 nM (input ligand: FMN 200 uM), 15.8 nM under setting [4] and 26 nM (input ligand: none).
Regarding “GCAGCGUAGUCUAAAUAAGACAUACAUGAGGAUCACCCAUGUCAGGAUAUGGUCUGGAUUACAGGCCAGAAGGGACAAAGCUGC [Eli exng3 - 002] (Eterna round: R96, puzzle: Exclusion NG 3)”, the “apparent KD of MS2 coat protein” value by setting is: (input ligand: FMN 200 uM) 21.4 nM; under setting [4], 16.5 nM; (input ligand: none) 17.7 nM.
“GCAGCGUAUGUAGGAUAUCGGUCAGUUUCUGAUCGAGAAGGACAUGAGGAUCACCCAUGUAUAUUCUAGCGUGAGCUAGGCUGC [JL ENG1 3.70] (Eterna round: R96, puzzle: Exclusion NG 1)”: under setting [4], the “apparent KD of MS2 coat protein” value was 14.3 nM.
Take “GCAGCUAAUGCAGGAUAUCAGCACGUUUAGUGCUGAGAAGGGCACAUGAGGAUCACCCAUGUGAUCAAUUAAUAUUAAUGCUGC [ENG1/11-B2] (Eterna round: R96, puzzle: Exclusion NG 1)”: the “apparent KD of MS2 coat protein” value runs as follows: (input ligand: FMN 200 uM) 152 nM; under setting [4], 23.1 nM; (input ligand: none) 31 nM.
As for “GCAGCUUAGUUAACAGACUGUUACAUGAGGAUCACCCAUGUGCAGGAUAUGGUCUGGAUUACAGGCCAGAAGGGUACAGGCUGC [Eli exng3 - 017] (Eterna round: R96, puzzle: Exclusion NG 3)”, the “apparent KD of MS2 coat protein” value worked out at 10.8 nM (input ligand: FMN 200 uM), 6.6 nM under setting [4] and 13.4 nM (input ligand: none).
Regarding “GCAGGAUAAGUGAGGAUAUACCUAUGGAUACAUAGGUAGAAGGCACAUGAGGAUCACCCAUGUUCCUUACCUGC [Fiskers BMX 4 - 66] (puzzle: Brourd's mod of Exclusion 4)”, the “apparent KD of MS2 coat protein” value reads like this: under setting [2], 42 nM; under setting [1], 11.5 nM; under setting [3], 13 nM.
Consider “GCAGUGCGAGGAUAUACAUGAGGAUCACCCAUGUGAGAAUAAGAAGUGAGGAAGAAAAGUAGAAGGCGCGUUGG [Mat - Exclusion 3 - Mod of Salish D66] (Eterna round: R96, puzzle: Exclusion 3)”, for which the “apparent KD of MS2 coat protein” value is, setting by setting: (input ligand: FMN 200 uM) 103 nM; under setting [4], 49.5 nM; (input ligand: none) 52.6 nM.
On to “GCAGUGCGAGGAUAUACAUGAGGAUCACCCAUGUGAGAAUAAGAAGUGAGGAAGAAAAGUAGAAGGCGCGUUGG [Mat - Exclusion 3 - Mod of Salish D66] (puzzle: Exclusion 3)”, for which the “apparent KD of MS2 coat protein” value is 77.5 nM under setting [2], 36.4 nM under setting [1] and 59.6 nM under setting [3].
Turning to “GCAGUUCGAGUUAGGAUAUGAUUAAAAUUCGGAUAUCAGAAGGAACUUGAGGAUCACCCAAGUAUAGAUGUUGC [JR_BMEx4_Sub059] (Eterna round: R97, puzzle: Brourd's mod of Exclusion 4)”, the “apparent KD of MS2 coat protein” value is, setting by setting: (input ligand: FMN 200 uM) 42.1 nM; (input ligand: none) 17.1 nM.
In the case of “GCAUGUUAUGUCAGGAUAUACCUAUGGAUACAUAGGUAGAAGGGACAUGAGGAUCACCCAUGUCCUAACCAUGC [Fiskers BMX 4 - 22] (puzzle: Brourd's mod of Exclusion 4)”, the “apparent KD of MS2 coat protein” value under setting [1] was 11.4 nM.
“GCCAGAGCAGGAUAUUCAAUAUCUCACAUGAGGAUCACCCAUGUCCAGCGAAAGCUGGAGGGAGAAGGGCUCUGGC [Fiskers Ex 5 - 9] (puzzle: Exclusion 5)”: the “apparent KD of MS2 coat protein” value was 42.1 nM under setting [2], 57.3 nM under setting [1] and 61.6 nM under setting [3].
Take “GCCAUGUGAGGAUAUGUGGUCGAAUAUGAAAGUGAUUGACCAUAGAAGGCACAUGAGGAUCACCCAUGUCCUUU [Eternabot (L2) Solution 64] (Eterna round: R97, puzzle: Exclusion 4)”: the “apparent KD of MS2 coat protein” value is, setting by setting: (input ligand: FMN 200 uM) 131 nM; (input ligand: none) 27.3 nM.
